How the values were obtained:
[1] = molecular target: T1, extracellular domain of murine B7-H1 (R&D Systems, 1019-B7) (murine, UniProt Q9EP73 19-239); experiment: ELISA, biotinylated IgG1-TM on coated murine B7-H1 ECD
T1 construct: extracellular domain; Bought
Procedure: (§1) ELISAs were performed to determine the cross-reactivity of the anti-B7-H1 IgG1-TM antibodies for other immune co-modulatory molecules. […] Murine cross reactivity was also investigated by coating the ECD of murine B7-H1 (R&D Systems, 1019-B7). Biotinylated anti-B7-H1 IgG1-TM diluted at 100 nM in PBS containing 3% dried milk powder, were incubated at room temperature for 2 h to allow binding. Bound biotinylated IgGs were detected with europium N1-labelled streptavidin (Perkin Elmer, 1244-360) at 0.2 ug/mL. […] Primary antibodies were incubated at 5 ug/mL in PBS containing 3% dried milk powder for 2 h at room temperature. Detection was carried out by incubating the secondary antibody anti-mouse IgG Peroxidase conjugate (Sigma, A2554) or anti-rat IgG Peroxidase conjugate (Sigma, A5795) diluted 1:5000 in PBS containing 3% dried milk powder for 1 h at room temperature and subsequent addition of TMB (Sigma, T0440). […] Non-specific binding was determined using wells coated with the IgG1 isotype control at 5 ug/mL. Cross reactivities were calculated at a percent of the specific binding to the antigen relative to human B7-H1.

[2] = molecular target: T2, extracellular domain of human PD-L2 (R&D Systems, 1224-PL) (human, UniProt Q9BQ51 20-220); experiment: ELISA, biotinylated IgG1-TM on coated ECD
T2 construct: extracellular domain; Bought
T2 sequence (looked up): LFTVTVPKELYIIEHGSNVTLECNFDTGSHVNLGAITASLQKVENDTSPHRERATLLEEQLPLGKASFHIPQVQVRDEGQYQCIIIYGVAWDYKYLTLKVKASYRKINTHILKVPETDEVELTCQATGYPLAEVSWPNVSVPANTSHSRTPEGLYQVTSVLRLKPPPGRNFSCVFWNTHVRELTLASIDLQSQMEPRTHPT
Procedure: as §1

[3] = molecular target: T3, extracellular domain of human CD28 (R&D Systems, 342-CD) (human, UniProt P10747 19-152); experiment: ELISA, biotinylated IgG1-TM on coated ECD
T3 construct: extracellular domain; Bought
Procedure: as §1

[4] = molecular target: T4, human PD-1/Fc protein (R&D Systems, catalog #1086-PD) (human, UniProt Q15116 25-170); experiment: ELISA, biotinylated IgG1-TM on coated ECD
T4 construct: extracellular domain; Bought; not shown: Fc portion
Procedure: as §1

[5] = molecular target: T5, extracellular domain of human CTLA-4 (R&D Systems, 325-CT) (human, UniProt P16410 36-161); experiment: ELISA, biotinylated IgG1-TM on coated ECD
T5 construct: extracellular domain; Bought
T5 sequence (looked up): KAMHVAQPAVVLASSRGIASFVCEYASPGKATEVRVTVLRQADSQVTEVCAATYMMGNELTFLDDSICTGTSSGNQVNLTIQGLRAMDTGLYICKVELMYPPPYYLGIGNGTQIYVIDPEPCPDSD
Procedure: as §1

[6] = molecular target: T6, extracellular domain of human B7-H2 (R&D Systems, 165-B7) (human, UniProt O75144 19-256); experiment: ELISA, biotinylated IgG1-TM on coated ECD
T6 construct: extracellular domain; Bought
T6 sequence (looked up): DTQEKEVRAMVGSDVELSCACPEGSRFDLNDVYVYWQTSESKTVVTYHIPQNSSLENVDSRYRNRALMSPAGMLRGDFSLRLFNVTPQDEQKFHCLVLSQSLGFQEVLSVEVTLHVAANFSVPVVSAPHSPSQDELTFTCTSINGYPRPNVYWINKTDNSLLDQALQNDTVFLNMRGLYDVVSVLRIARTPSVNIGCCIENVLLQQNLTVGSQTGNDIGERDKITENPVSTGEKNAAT
Procedure: as §1

[7] = molecular target: T7, recombinant monomeric cynomologus B7-H1 FlagHis10 extracellular domain (cynomologus); experiment: SPR (BIAcore T100), IgG captured via protein G, monomeric cynomologus B7-H1 ECD as analyte, 25 °C, 1:1 model
T7 construct: extracellular domain; also called CYNO B7H1
Procedure: The binding affinity and kinetic parameters of anti-B7-H1 antibodies in the IgG1-TM format to monomeric human and cynomologus B7-H1 were determined by surface plasmon resonance using a BIAcore T100 instrument (BIAcore, Uppsala, Sweden). In brief, experiments were performed at 25° C. using HBS-EP buffer (10 mM HEPES, 150 mM NaCl, 3 mM EDTA, 0.05% v/v surfactant P20) as running buffer. IgGs were affinity captured on the surface of a CM5 sensor chip (BIAcore) via protein G, which was amine coupled onto the CM5 surface to achieve the density of ˜500 Response Units (RU), according to the manufacturer's instructions (BIAapplications Handbook, BIAcore). Recombinant monomeric human or cynomologus B7-H1 FlagHis₁₀ extracellular domains (ECDs) were used as analytes. […] All measurements were baseline corrected by subtracting the sensorgram obtained with the control (activated-deactivated) flow cell, as well as double referenced with blank (zero analyte concentration) injections. Data were analyzed using the T-100 BIAevaluation software package and fitted to a simple 1:1 Langmuir binding model with local Rₘₐₓ and bulk refractive index set to 0. Data were calculated from at least two independent experiments. Mass transport effects were limited by keeping the level of affinity-captured IgGs below 250 RU.

T4 sequence (Q15116 25-170): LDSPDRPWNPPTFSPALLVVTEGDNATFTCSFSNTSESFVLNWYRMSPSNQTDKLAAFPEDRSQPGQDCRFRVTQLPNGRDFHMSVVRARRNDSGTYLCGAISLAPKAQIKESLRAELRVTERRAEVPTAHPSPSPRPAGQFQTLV
T3 sequence (P10747 19-152): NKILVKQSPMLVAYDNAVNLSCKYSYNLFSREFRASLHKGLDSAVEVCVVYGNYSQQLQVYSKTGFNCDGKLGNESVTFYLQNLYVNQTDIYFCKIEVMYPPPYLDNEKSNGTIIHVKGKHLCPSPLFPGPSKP
T1 sequence (Q9EP73 19-239): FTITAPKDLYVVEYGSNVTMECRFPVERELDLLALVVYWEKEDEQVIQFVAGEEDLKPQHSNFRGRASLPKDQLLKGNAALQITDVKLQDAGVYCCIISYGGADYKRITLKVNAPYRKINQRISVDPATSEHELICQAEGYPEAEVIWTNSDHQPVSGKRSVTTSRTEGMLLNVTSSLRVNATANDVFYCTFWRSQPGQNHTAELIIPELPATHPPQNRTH

B1: 2.14H9OPT (antibody, V domains shown)
VH: EVQLVESGGGLVQPGGSLRLSCAASGFTFSRYWMSWVRQAPGKGLEWVANIKQDGSEKYYVDSVKGRFTISRDNAKNSLYLQMNSLRAEDTAVYYCAREGGWFGELAFDYWGQGTLVTVSS
VL: EIVLTQSPGTLSLSPGERATLSCRASQRVSSSYLAWYQQKPGQAPRLLIYDASSRATGIPDRFSGSGSGTDFTLTISRLEPEDFAVYYCQQYGSLPWTFGQGTKVEIK
notes: Germlined VL; human IgG1-TM (L234F, L235E, P331S), kappa
binding result [1]: no binding (tested: 100 nM) | binding result [2]: no binding (tested: 100 nM) | binding result [3]: no binding (tested: 100 nM) | binding result [4]: no binding (tested: 100 nM) | binding result [5]: no binding (tested: 100 nM) | binding result [6]: no binding (tested: 100 nM) | Kd [7]: 0.367 nM

B2: 2.9D10 in the IgG1-TM format (antibody, V domains shown)
VH: EVQLVESGGGLVQPGGSLRLSCAASGFTFSSYWMSWVRQAPGKGLEWVANIKQDGGEQYYVDSVKGRFTISRDNAKNSLYLQMNSLRAEDTAVYYCARDWNYGYYDMDVWGQGTTVTVSS
VL: EIVLTQSPGTLSLSPGERATLSCRASQSVSSNYLAWFQQKPGQAPRLLIFGTSSRATGIPDRFSGSGSGTDFTLTISRLEPEDFAVYYCQQYGSSIFTFGPGTKVDIK
notes: Recombinant human IgG1-TM (IgG1 with L234F, L235E, P331S), kappa; also called 2.9D10 IgG1-TM
binding result [1]: no binding (tested: 100 nM) | binding result [2]: no binding (tested: 100 nM) | binding result [3]: no binding (tested: 100 nM) | binding result [4]: no binding (tested: 100 nM) | binding result [5]: no binding (tested: 100 nM) | binding result [6]: no binding (tested: 100 nM)

From patent US20130034559A1 (AstraZeneca / MedImmune, published 2013)
